The values below come from publication PMC6685660.

Test in all cases: EMSA
For orientation: Mobility shift assays separate free from complexed probe on a gel.

In one data set the target is T1, AaTGA6;AaNPR1 (Artemisia annua;Artemisia annua, UniProt A0A481P8G0;A0A481P8F5 1-436;1-569, |).
T1 sequence 1: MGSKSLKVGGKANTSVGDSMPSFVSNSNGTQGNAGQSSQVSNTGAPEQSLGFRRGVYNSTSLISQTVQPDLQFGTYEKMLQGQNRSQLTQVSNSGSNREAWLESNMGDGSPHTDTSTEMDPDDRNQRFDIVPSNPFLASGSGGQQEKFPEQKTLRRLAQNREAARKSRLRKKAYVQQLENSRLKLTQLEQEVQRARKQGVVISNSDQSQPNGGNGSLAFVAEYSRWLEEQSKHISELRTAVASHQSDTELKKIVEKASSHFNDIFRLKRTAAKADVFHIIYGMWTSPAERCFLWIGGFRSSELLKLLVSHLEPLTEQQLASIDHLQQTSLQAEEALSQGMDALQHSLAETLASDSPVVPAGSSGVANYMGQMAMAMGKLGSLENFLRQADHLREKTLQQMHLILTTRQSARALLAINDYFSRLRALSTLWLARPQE
T1 sequence 2: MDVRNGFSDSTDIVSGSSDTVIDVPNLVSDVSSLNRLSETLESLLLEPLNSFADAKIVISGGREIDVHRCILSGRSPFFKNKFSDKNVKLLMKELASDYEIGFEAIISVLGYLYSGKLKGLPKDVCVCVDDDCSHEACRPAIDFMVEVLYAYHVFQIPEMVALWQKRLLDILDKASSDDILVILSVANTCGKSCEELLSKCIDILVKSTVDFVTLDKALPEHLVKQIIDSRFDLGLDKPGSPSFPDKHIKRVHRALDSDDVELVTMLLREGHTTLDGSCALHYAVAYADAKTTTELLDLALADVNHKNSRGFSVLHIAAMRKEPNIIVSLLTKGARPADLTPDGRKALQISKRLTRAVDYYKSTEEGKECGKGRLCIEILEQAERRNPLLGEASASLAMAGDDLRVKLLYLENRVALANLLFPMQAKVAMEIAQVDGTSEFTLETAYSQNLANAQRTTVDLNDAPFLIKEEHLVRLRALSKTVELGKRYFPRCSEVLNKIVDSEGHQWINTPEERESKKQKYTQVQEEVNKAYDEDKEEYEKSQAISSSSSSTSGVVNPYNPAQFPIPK

The target in a further data set is T2, AaNPR1 (Artemisia annua, UniProt A0A481P8F5 1-569).
T2 sequence: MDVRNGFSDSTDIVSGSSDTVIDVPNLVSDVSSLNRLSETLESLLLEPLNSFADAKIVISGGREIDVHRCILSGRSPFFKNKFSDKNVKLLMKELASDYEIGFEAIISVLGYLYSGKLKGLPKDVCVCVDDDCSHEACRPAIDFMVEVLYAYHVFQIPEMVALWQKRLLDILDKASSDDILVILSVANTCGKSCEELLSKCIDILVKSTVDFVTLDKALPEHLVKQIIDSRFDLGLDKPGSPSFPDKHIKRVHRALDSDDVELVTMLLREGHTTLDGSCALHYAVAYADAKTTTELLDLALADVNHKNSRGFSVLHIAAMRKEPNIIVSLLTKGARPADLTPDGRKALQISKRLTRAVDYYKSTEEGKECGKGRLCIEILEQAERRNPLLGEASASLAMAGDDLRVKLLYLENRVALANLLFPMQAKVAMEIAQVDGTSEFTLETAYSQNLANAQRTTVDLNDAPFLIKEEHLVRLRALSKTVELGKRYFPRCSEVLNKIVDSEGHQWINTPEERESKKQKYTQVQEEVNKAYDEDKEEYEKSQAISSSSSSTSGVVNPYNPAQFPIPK

A further data set deals with T3, AaTGA6 (Artemisia annua, UniProt A0A481P8G0 1-436).
T3 sequence: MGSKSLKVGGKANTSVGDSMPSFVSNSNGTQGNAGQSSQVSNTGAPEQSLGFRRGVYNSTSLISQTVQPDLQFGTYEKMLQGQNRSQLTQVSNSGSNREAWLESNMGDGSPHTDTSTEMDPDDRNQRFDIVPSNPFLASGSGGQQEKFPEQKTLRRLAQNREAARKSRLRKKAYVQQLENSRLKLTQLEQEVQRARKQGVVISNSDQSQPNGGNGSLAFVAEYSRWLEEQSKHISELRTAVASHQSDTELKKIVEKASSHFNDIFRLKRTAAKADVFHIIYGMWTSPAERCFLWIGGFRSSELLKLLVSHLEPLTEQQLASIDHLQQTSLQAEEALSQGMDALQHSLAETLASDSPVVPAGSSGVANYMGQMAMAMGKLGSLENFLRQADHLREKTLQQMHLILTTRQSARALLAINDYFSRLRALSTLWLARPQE

B1: AaERF1 promoter TGACG box probe (40 bp) (dsDNA)
DNA 1: AATGATGCGTCAAGCCATGACGTCACCCCTAATCCTAAAT
DNA 2: ATTTAGGATTAGGGGTGACGTCATGGCTTGACGCATCATT
As for B1, the results for the binding result with AaTGA6;AaNPR1, with AaNPR1 and with AaTGA6 were “binds”, “no binding” and “binds”, respectively.
